Values quoted from earlier work in paper PMC3760879.

Target: Asp97 (UniProt position 97, VFRYIDWLLTV)
Conditions: dark/ground state implied (protonation of the acceptor group at neutral pH); not explicitly stated

For “Proteorhodopsin (PR) (uncultured marine gamma-proteobacterium (the article says only 'γ-proteobacteria'))”, the pKa is listed as “around 7.2”.
